Measurements as given in patent publication US20130309233A1 (SORRENTO THERAPEUTICS, published 2013).
Read-outs that look alike come from different tables or passages of the source.

Legend:
[1] = target: T1, EGFR expressed on the surface of cells (A431, A549, MCF7 and other EGFR-expressing cell lines) (human, UniProt P00533 25-1210); assay: binding of purified IgG to EGFR-expressing cell lines
T1 construct: whole, on cells; also called EGF Receptor; cell surface EGFR

[2] = target: T1, EGFR expressed on the surface of cells …; assay: cell-based or functional assay
[3] = target: T1, EGFR expressed on the surface of cells …; assay: cell-based or functional assay; remark: listed apart in the source
[4] = target: T1, EGFR expressed on the surface of cells …; assay: cell-based or functional assay; remark: listed apart in the source

| IC50 (M), inhibition of EGF-stimulated EGFR auto-phosphorylation in A549 cells [2] [M] | IC50 (M), inhibition of EGF-stimulated EGFR auto-phosphorylation in A549 cells [3] [M] | Binder | other results |
| --- | --- | --- | --- |
| – | – | B1 (antibody, IgG1, V domains shown) VH: QVQLVQSGGGVVQPGRSLRLSCAASGFIFNHYAMHWVRQAPGKGLEWVAHISSDGSYKFYADSVKGRFTVSRDNSDNTVYLQMNSLGPEDTAVYHCARFTEVLYYGADYWGQGTLVTVSS VL: not shown | binding result [1]: binds |
| 8.6e-10 | – | D2 GB8 (antibody, V domains shown) VH: EVQLVESGGGVVQPGRSLRLSCAASGFIFHHYAMHWVRQAPGKGLEWVAHISPDGSYKFYADSVKGRFTVSRDNSKNTLYLQMNSLRAEDTAVYYCARFTEVLYYGADIWGQGTLVTVSS VL: QSVLTQPPSVSEAPRQRVSISCSGSSSNIGNNAVNWYQQLPGKAPKLLIYYDDLLPSGVSNRFSGSKSGTSASLAISGLQSEDEADYYCAAWDDSLKGYVFGTGTKVTVL | – |
| 1.7e-10 | – | D2GA4 (antibody, V domains shown) VH: EVQLVESGGGVVQPGRSLRLSCAASGFIFHHYAMHWVRQAPGKGLEWVAHISSDGSSKFYADSVKGRFTVSRDNSKNTLYLQMNSLRAEDTAVYYCARFTEVLYYGADLWGQGTLVTVSS VL: QSVLTQPPSVSEAPRQRVSISCSGSSSNIGDNAVNWYQQLPGKAPKLLIYYDDLHPSGVSDRFSGSKSGTSASLAISGLQSEDEADYYCAAWDDSLKGYVFGTGTKVTVL | – |
| 1.8e-10 | – | D2GA2 (antibody, V domains shown) VH: EVQLVESGGGVVQPGRSLRLSCAASGFIFHHYAMHWVRQAPGKGLEWVAHISPDGSSKFYADSVKGRFTVSRDNSKNTLYLQMNSLRAEDTAVYYCARFTEVLYYGADIWGQGTLVTVSS VL: QSVLTQPPSVSEAPRQRVSISCSGSSSNIGNNAVNWYQQLPGKAPKLLIYFDDLLPSGVSDRFSGSKSGTSASLAISGLQSEDEADYYCAAWDDSLKGYVFGTGTKVTVL | – |
| 2.8e-10 | – | D2GC4 (antibody, V domains shown) VH: EVQLVESGGGVVQPGRSLRLSCAASGFIFHHYSMHWVRQAPGKGLEWVAHISSDGSSKFYADSVKGRFTVSRDNSKNTLYLQMNSLRAEDTAVYYCARFTEVLYYGADLWGQGTLVTVSS VL: QSVLTQPPSVSEAPRQRVSISCSGSSSNIGNNAVNWYQQLPGKAPKLLIYYDDLLPSGVSDRFSGSKSGTSASLAISGLQSEDEADYYCAAWDDSLKGYVFGTGTKVTV | – |
| 8.9e-10 | – | D2GG1 (antibody, V domains shown) VH: EVQLVESGGGVVQPGRSLRLSCAASGFTFSHYAMHWVRQAPGKGLEWVAHISLDGSSKFYADSVKGRFTVSRDNSKNTLYLQMNSLRAEDTAVYYCARFTEVLYYGADLWGQGTLVTVSS VL: QSVLTQPPSVSEAPRQRVSISCSGSSSNIGNNAVNWYQQLPGKAPKLLIYYDDLLPSGVSDRFSGSKSGTSASLAISGLQSEDEADYYCAAWDDSLKGYVFGTGTKVTVL | – |
| 2.3e-10 | – | D2GA5 (antibody, V domains shown) VH: EVQLVESGGGVVQPGRSLRLSCAASGFIFHHYAMHWVRQAPGKGLEWVAHISIDGSSKFYADSVKGRFTVSRDNSKNTLYLQMNSLRAEDTAVYYCARFTEVLYYGADLWGQGTLVTVSS VL: QSVLTQPPSVSEAPRQRVSISCSGSSSNIGNNAVNWYQQLPGKAPKLLIYYDDLLPSGVSDRFSGSKSGTSASLAISGLQSEDEADYYCAAWDDSLKGYVFGTGTKVTVL | – |
| 2.2e-10 | – | D2GA6 (antibody, V domains shown) VH: EVQLVESGGGVVQPGRSLRLSCAASGFIFHHYAMHWVRQAPGKGLEWVAHISPDGSSKFYADSVKGRFTVSRDNSKNTLYLQMNSLRAEDTAVYYCARFTEVLYYGADIWGQGTLVTVSS VL: QSVLTQPPSVSEAPRQRVSISCSGSSSNIGNNAVNWYQQLPGKAPKLLIYFDDLLPQGVSDRFSGSKSGTSASLAISGLQSEDEADYYCAAWDDSLKGYVFGTGTKVTVL | – |
| 2e-10 | – | D2GC1 (antibody, V domains shown) VH: EVQLVESGGGVVQPGRSLRLSCAASGFIFHHYAMHWVRQAPGKGLEWVAHISPDGSSKFYADSVKGRFTVSRDNSKNTLYLQMNSLRAEDTAVYYCARFTEVLYYGADLWGQGTLVTVSS VL: QSVLTQPPSVSEAPRQRVSISCSGSSSNIGNNAVNWYQQLPGKAPKLLIYYDDLLPSGVSDRFSGSKSGTSASLAISGLQSEDEADYYCAAWDDSLKGYVFGTGTKVTVL | – |
| – | 5.1e-10 | A6-A1 (antibody, V domains shown) VH: QVQLVQSGAEVKKPGSSVKVSCKASGGTFRNHAWSWVRQAPGQGLEWMGWISAYNGYTHYASKLQGRVTMTTDTSTSTAYMELRSLRSDDTAVYYCARVSAEYAEDWSLHYYYMDVWGQGTLVTVSS VL: QSVLTQPPSVSAAPGQEVTISCSGSNSNIGNNYVSWYQQLPGTAPKLLIYDNNERPSGIPDRFSGSKSGTSATLGITGLQTGDEADYYCSTWDSSLSAVVFGGGTKLTVL | – |
| – | 6e-10 | A6-A8 (antibody, V domains shown) VH: QVQLVQSGAEVKKPGSSVKVSCKASGGTFRNHAYSWVRQAPGQGLEWMGWISAYNGYTTYAEKLQGRVTMTTDTSTSTAYMELRSLRSDDTAVYYCARVSAEYAEDWSLHYYYGMDVWGQGTLVTVSS VL: QSVLTQPPSVSAAPGQEVTISCSGSNSNIPNNYVSWYQQLPGTAPKLLIYSNSERPSGIPDRFSGSKSGTSATLGITGLQTGDEADYYCSTWDSSLSAALFGGGTKLTVL | – |
| – | 1.1e-09 | A6-A5 (antibody, V domains shown) VH: QVQLVQSGAEVKKPGSSVKVSCKASGGTFRNHAYSWVRQAPGQGLEWMGWISAYNGYTHYASKLQGRVTMTTDTSTSTAYMELRSLRSDDTAVYYCARVSASYASDWSLHYYYGMDVWGQGTLVTVSS VL: QSVLTQPPSVSAAPGQEVTISCSGSNSNIGNNYVSWYQQLPGTAPKLLIYDTAERPSGIPDRFSGSKSGTSATLGITGLQTGDEADYYCSTWDSSLSAVLFGGGTKLTVL | – |
| – | 5.6e-10 | A6-A7 (antibody, V domains shown) VH: QVQLVQSGAEVKKPGSSVKVSCKASGGTFRNHAYSWVRQAPGQGLEWMGWISAYNGYTHYAEKLQGRVTMTTDTSTSTAYMELRSLRSDDTAVYYCARVSAEYNSDWSVHYYYGMDVWGQGTLVTVSS VL: QSVLTQPPSVSAAPGQEVTISCSGSNSNIGPNYVSWYQQLPGTAPKLLIYDNNERPSGIPDRFSGSKSGTSATLGITGLQTGDEADYYCSTFDSSLSAAVFGGGTKLTVL | – |
| – | 1.05e-09 | A6-A4 (antibody, V domains shown) VH: QVQLVQSGAEVKKPGSSVKVSCKASGGTFRNHAYSWVRQAPGQGLEWMGWISAYNGYTTYASKLQGRVTMTTDTSTSTAYMELRSLRSDDTAVYYCARVSASYNSDWSLHYYYGMDVWGQGTLVTVSS VL: QSVLTQPPSVSAAPGQEVTISCSGSNSNIENNYVSWYQQLPGTAPKLLIYSNNERPSGIPDRFSGSKSGTSATLGITGLQTGDEADYYCGTFDSSLSAVVFGGGTKLTVL | – |
| – | 1.1e-09 | A6-A3 (antibody, V domains shown) VH: QVQLVQSGAEVKKPGSSVKVSCKASGGTFRNHAWSWVRQAPGQGLEWMGWISAYNGYTTYASKLQGRVTMTTDTSTSTAYMELRSLRSDDTAVYYCARVSASYNEDWSLHYYYGMDVWGQGTLVTVSS VL: QSVLTQPPSVSAAPGQEVTISCSGSNSNIEPNYVSWYQQLPGTAPKLLIYSTAERPSGIPDRFSGSKSGTSATLGITGLQTGDEADYYCSTWDSSLSAVVFGGGTKLTVL | – |
| – | – | A5 (antibody, IgG1, V domains shown) VH: EVQLVQSGAEVKKPGASVKVSCKASGGTFSSYAISWVRQAPGQGLEWMGGIIPILGTADYAQKFQGRVTITADESTSTAYMELSSLRSEDTAVYYCARDEIPLEYCTSTSCYHAFDIWGQGTMVTVSS VL: not shown | decrease in EGF stimulated receptor phosphorylation assay in EGFR positive cells (A431) [4]: ~10% |
| – | – | B4 (antibody, IgG1, V domains shown, also called EGFR-B4) VH: QVQLVQSGAEVKKPGSAVKVSCKASGGTFSSYAISWVRQAPGQGLEWMGGIIPILGTADYAQKFQGRVTITADESTSTAYMELSSLRSEDTAVYYCARDEIPLEYCTSTSCYHAFDIWGQGTMVTVSS VL: NIQMTQSPPSLSAFVGDRVTITCQASQAINNYLNWYQQKPGKAPKLLIYDASNLETGVPSRFSGSGSGTDFTFTISSLQPEDNATYYCQQYDKLPLTFGGGTKVEIK | binding result [1]: binds |
| – | – | D6 (antibody, IgG1, V domains shown, also called EGFR-D6) VH: EVQLVQSGAEVKKPGSAVKVSCKASGGTFSSYAISWVRQAPGQGLEWMGGIIPILGTADYAQKFQGRVTITADESTSTAYMELSSLRSEDTAVYYCARDEIPLEYCTSTSCYHAFDIWGRGTMVTVSS VL: AIQLTQSPSTLSASVGDRVTITCRASQSISSWLAWYQQKPGKAPKLLIYAASSLQSGVPSRFSGSGSGTDFTLTISSLQPEDFATYYCQQSYSTPLTFGGGTKVEIK | binding result [1]: binds |
| – | – | B5 (antibody, IgG1, V domains shown) VH: QMQLVQSWAEVKKPGASVKVSCKASAYTFTNYYIHWVRQAPGQGLEWMGIINPSSGATTYAQRLQGRVIMTRDTSTSTVNMELSSLRSEDTAVYYCARSTLWFSEFDYWGQGTLVTVSS VL: QSVLTQPASVSGSPGQSITISCTGTTSDVGGFNYVSWYQQHPGKVPKLIIFDVSNRPSSVSDRFSGSKSVNTASLTISGLQAEDEADYYCSSYTDSGSYIFGTGTKVTVL | decrease in EGF stimulated receptor phosphorylation assay in EGFR positive cells (A431) [4]: ~10% |
